The supplement of paper PMC7877785
± gives the uncertainty stated by the source.

Assay: self-splicing fitness, log relative to wild type (ln ratio); higher = more splicing; Tetrahymena group I intron in knt gene, E. coli kanamycin selection, DiMSum; sequences stand for … in CUCUCU…GGAGGGAAAAGUUAUCAGGCAUGCACCUGGUAGCUAGUCUUUAAACCAAUAGAUUGCAUCGGUUUAAAAGGCAAGACCGUCAAAUUGCGGGAAAGGGGUCAACAGCCGUUCAGUACCAAGUCUCAGGGGAAACUUUGAGAUGGCCUUGCAAAGGGUAUGGUAAUAAGCUGACGGACAUGGUCCUAACCACGCAGCCAAGUCCUAAGUCAACAGAUCUUCUGUUGAUAUGGAUGCAGUUCACAGACUAAAUGUCGGUCGGGGAAGAUGUAUUCUUCUCAUAAGAUAUAGUCGGACCUCUCCUUAAUGGGAGCUAGCGGAUGAAGUGAUGCAACACUGGAGCCGCUGGGAACUAAUUUGUAUGCGAAAGUAUAUUGAUUAGUUUUGGAGUACUCGUGGUCG
In short: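 DiMSum derived fitness as the error-weighted combination of fold changes across replicates, kanamycin versus no kanamycin, normalised to wild type. E. coli BL21(DE3) held the library, which randomised all eight P1ex-region intron nucleotides within the knt kanamycin-resistance gene on pET-22b(+). Six replicate transformations grew overnight at 37°C or 30°C on LB agar with or without 25 μg/mL kanamycin, also containing 100 μg/mL carbenicillin, 50 μM IPTG and 0.2% rhamnose, and pooled colonies were amplicon-sequenced on an Illumina HiSeq 2500.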

| Sequence | self-splicing fitness (ln) (30 °C) | self-splicing fitness (ln) (37 °C) |
| --- | --- | --- |
| AAGUAGCAAUAUUACGUAAU | -2.31 ± 0.1 | 0.0619 ± 0.096 |
| AAGUAGCAAUAUUACGUCAA | -2.25 ± 0.1 | -0.583 ± 0.083 |
| AAGUAGCAAUAUUACGUCAG | -3.38 ± 0.19 | -2.43 ± 0.18 |
| AAGUAGCAAUAUUACGUCAU | -2.29 ± 0.13 | -0.997 ± 0.12 |
| AAGUAGCAAUAUUACGUCCG | -1.53 ± 0.14 | -1.93 ± 0.14 |
| AAGUAGCAAUAUUACGUCGG | -2.97 ± 0.25 | -2.09 ± 0.26 |
| AAGUAGCAAUAUUACGUCUU | -0.577 ± 0.12 | -0.48 ± 0.11 |
| AAGUAGCAAUAUUACGUUAA | -2.47 ± 0.23 | -2.33 ± 0.18 |
| AAUAAGCAAUAUUACGACAU | -0.117 ± 0.012 | 0.0514 ± 0.032 |
| AAUAAGCAAUAUUACGAGAC | -3.14 ± 0.47 | -1.18 ± 0.23 |
| AAUAAGCAAUAUUACGAGGU | -4.58 ± 0.27 | -2.11 ± 0.18 |
| AAUAAGCAAUAUUACGAGUU | -1.32 ± 0.087 | -1.1 ± 0.1 |
| AAUAAGCAAUAUUACGAUCA | -0.507 ± 0.12 | 0.576 ± 0.13 |
| AAUAAGCAAUAUUACGAUGA | -0.45 ± 0.1 | -0.0904 ± 0.11 |
| AAUAAGCAAUAUUACGAUGG | -2.53 ± 0.14 | -0.861 ± 0.12 |
| AAUAAGCAAUAUUACGCAAG | -1.77 ± 0.1 | -1.59 ± 0.14 |
| AAUAAGCAAUAUUACGCCUC | -2.43 ± 0.35 | -1.19 ± 0.31 |
| AAUAAGCAAUAUUACGCCUU | -0.502 ± 0.12 | -0.0645 ± 0.18 |
| AAUAAGCAAUAUUACGCGAC | -1.61 ± 0.14 | -1.46 ± 0.14 |
| AAUAAGCAAUAUUACGCGAU | -2.22 ± 0.23 | -2.98 ± 0.35 |
| AAUAAGCAAUAUUACGCGCC | -0.204 ± 0.15 | -0.572 ± 0.16 |
| AAUAAGCAAUAUUACGCGCG | -0.258 ± 0.11 | 0.0567 ± 0.15 |
| AAUAAGCAAUAUUACGCGUC | -1.45 ± 0.13 | -1.15 ± 0.16 |
| AAUAAGCAAUAUUACGCUCU | -0.422 ± 0.079 | -0.115 ± 0.09 |

| Sequence | self-splicing fitness (ln) (30 °C) | self-splicing fitness (ln) (37 °C) |
| --- | --- | --- |
| AAUAAGCAAUAUUACGGAUU | -1.34 ± 0.096 | -0.185 ± 0.12 |
| AAUAAGCAAUAUUACGGCAC | -1.44 ± 0.11 | -0.634 ± 0.14 |
| AAUAAGCAAUAUUACGGCCG | -0.879 ± 0.12 | 0.196 ± 0.2 |
| AAUAAGCAAUAUUACGGGAA | -2.54 ± 0.28 | -0.437 ± 0.2 |
| AAUAAGCAAUAUUACGGGCA | -0.69 ± 0.1 | -0.292 ± 0.11 |
| AAUAAGCAAUAUUACGGGGC | -3.29 ± 0.26 | -2.91 ± 0.37 |
| AAUAAGCAAUAUUACGGUUA | -0.197 ± 0.08 | -0.369 ± 0.077 |
| AAUAAGCAAUAUUACGUCAC | -3.19 ± 0.17 | -3.17 ± 0.21 |
| AAUAAGCAAUAUUACGUCAU | -1.39 ± 0.062 | -0.608 ± 0.092 |
| AAUAAGCAAUAUUACGUGAC | -2.18 ± 0.2 | -2.76 ± 0.35 |
| AAUAAGCAAUAUUACGUUUC | -4.09 ± 0.28 | -2.46 ± 0.24 |
| AAUCAGCAAUAUUACGAAAG | -1.78 ± 0.12 | -0.272 ± 0.13 |
| AAUCAGCAAUAUUACGAGCC | -2.39 ± 0.16 | -0.744 ± 0.19 |
| AAUCAGCAAUAUUACGAGCG | -0.582 ± 0.063 | -0.11 ± 0.079 |
| AAUCAGCAAUAUUACGAGCU | -0.908 ± 0.093 | -0.226 ± 0.093 |
| AAUCAGCAAUAUUACGAGGG | -1.68 ± 0.088 | -0.681 ± 0.096 |
| AAUCAGCAAUAUUACGAUAU | 0.477 ± 0.082 | 0.538 ± 0.1 |
| AAUCAGCAAUAUUACGAUGG | -1.49 ± 0.1 | -0.853 ± 0.12 |
| AAUCAGCAAUAUUACGCACG | -1.02 ± 0.17 | -1.1 ± 0.16 |
| AAUCAGCAAUAUUACGCCAC | -3.91 ± 0.21 | -3.78 ± 0.39 |
| AAUCAGCAAUAUUACGCCGG | -1.15 ± 0.086 | -0.932 ± 0.099 |
| AAUCAGCAAUAUUACGCGAC | -1.17 ± 0.085 | -1.96 ± 0.15 |
| AAUCAGCAAUAUUACGCGGC | -1.53 ± 0.26 | 0.179 ± 0.16 |
| AAUCAGCAAUAUUACGCUGC | -3.58 ± 0.26 | -2.36 ± 0.19 |

| Sequence | self-splicing fitness (ln) (30 °C) | self-splicing fitness (ln) (37 °C) |
| --- | --- | --- |
| AAUCAGCAAUAUUACGGACC | 0.313 ± 0.13 | -0.451 ± 0.13 |
| AAUCAGCAAUAUUACGGCCA | -0.515 ± 0.11 | -0.146 ± 0.12 |
| AAUCAGCAAUAUUACGGCGC | -0.736 ± 0.096 | 0.0282 ± 0.11 |
| AAUCAGCAAUAUUACGGGAA | -1.37 ± 0.097 | 0.137 ± 0.078 |
| AAUCAGCAAUAUUACGGGUG | -0.238 ± 0.044 | 0.275 ± 0.06 |
| AAUCAGCAAUAUUACGGUAU | 0.192 ± 0.063 | 0.705 ± 0.088 |
| AAUCAGCAAUAUUACGGUCG | -0.214 ± 0.048 | 0.0375 ± 0.065 |
| AAUCAGCAAUAUUACGGUCU | -0.356 ± 0.06 | -0.224 ± 0.071 |
| AAUCAGCAAUAUUACGUAAU | -0.172 ± 0.059 | 0.204 ± 0.075 |
| AAUCAGCAAUAUUACGUACA | -0.484 ± 0.076 | 0.13 ± 0.1 |
| AAUCAGCAAUAUUACGUAGC | -1.93 ± 0.093 | -0.229 ± 0.12 |
| AAUCAGCAAUAUUACGUAGG | -1.61 ± 0.056 | -0.958 ± 0.077 |
| AAUCAGCAAUAUUACGUCAC | -3.34 ± 0.27 | -1.93 ± 0.19 |
| AAUCAGCAAUAUUACGUCGU | -0.489 ± 0.054 | 0.414 ± 0.071 |
| AAUCAGCAAUAUUACGUUAG | -3.15 ± 0.2 | -2.86 ± 0.23 |
| AAUCAGCAAUAUUACGUUCG | -1.51 ± 0.07 | -0.466 ± 0.089 |
| AAUCAGCAAUAUUACGUUUU | -0.639 ± 0.058 | -0.399 ± 0.085 |
| AAUGAGCAAUAUUACGAAAC | – | -1.27 ± 0.32 |
| AAUGAGCAAUAUUACGAAGA | -2.8 ± 0.19 | -2.91 ± 0.26 |
| AAUGAGCAAUAUUACGACCC | -3.25 ± 0.32 | 0.0637 ± 0.21 |
| AAUGAGCAAUAUUACGACUA | -2.47 ± 0.25 | -0.177 ± 0.21 |
| AAUGAGCAAUAUUACGAGAU | -3.92 ± 0.21 | -2.23 ± 0.13 |
| AAUGAGCAAUAUUACGAUCG | -3.6 ± 0.32 | -2.59 ± 0.24 |
| AAUGAGCAAUAUUACGAUGG | -1.98 ± 0.13 | -2.1 ± 0.26 |

| Sequence | self-splicing fitness (ln) (30 °C) | self-splicing fitness (ln) (37 °C) |
| --- | --- | --- |
| AAUGAGCAAUAUUACGCCCA | -2.56 ± 0.3 | -1.75 ± 0.32 |
| AAUGAGCAAUAUUACGCGAG | -2.49 ± 0.16 | -1.46 ± 0.14 |
| AAUGAGCAAUAUUACGCGUA | -2.4 ± 0.27 | -1.62 ± 0.25 |
| AAUGAGCAAUAUUACGCGUC | -3.02 ± 0.29 | -2.25 ± 0.29 |
| AAUGAGCAAUAUUACGCUCA | -1.91 ± 0.42 | -0.648 ± 0.38 |
| AAUGAGCAAUAUUACGGGGA | -2.54 ± 0.17 | -2.22 ± 0.25 |
| AAUGAGCAAUAUUACGGUAA | -1.61 ± 0.34 | -2.24 ± 0.4 |
| AAUGAGCAAUAUUACGGUGC | -3.37 ± 0.23 | -3.03 ± 0.27 |
| AAUGAGCAAUAUUACGGUUC | -2.91 ± 0.15 | -2.48 ± 0.18 |
| AAUGAGCAAUAUUACGUAUA | -3.43 ± 0.17 | -1.93 ± 0.13 |
| AAUGAGCAAUAUUACGUGAA | -2.17 ± 0.16 | -1.8 ± 0.27 |
| AAUGAGCAAUAUUACGUGAC | -3.08 ± 0.37 | -1.25 ± 0.19 |
| AAUGAGCAAUAUUACGUGGC | -2.82 ± 0.15 | -2.7 ± 0.2 |
| AAUGAGCAAUAUUACGUUAU | -4.01 ± 0.21 | -3.73 ± 0.24 |
| AAUUAGCAAUAUUACGAAAU | -1.2 ± 0.16 | -1.09 ± 0.23 |
| AAUUAGCAAUAUUACGACAG | -1.72 ± 0.32 | -0.992 ± 0.25 |
| AAUUAGCAAUAUUACGAGCC | – | -1.57 ± 0.47 |
| AAUUAGCAAUAUUACGAGGA | -2.64 ± 0.26 | -0.851 ± 0.18 |
| AAUUAGCAAUAUUACGAGUG | -1.08 ± 0.081 | -0.525 ± 0.11 |
| AAUUAGCAAUAUUACGAUCA | -0.335 ± 0.28 | -0.16 ± 0.22 |
| AAUUAGCAAUAUUACGCCGU | -0.928 ± 0.23 | -0.523 ± 0.26 |
| AAUUAGCAAUAUUACGCGUG | -0.374 ± 0.066 | -0.101 ± 0.083 |
| AAUUAGCAAUAUUACGCUAG | -2.38 ± 0.13 | -1.06 ± 0.13 |
